B1: SWI/SNF complex subunit SMARCC2, residues 599 to 641; numbered along this chain, Q8TAQ2 (parent)
chain: REWTEQETLLLLEALEMYKDDWNKVSEHVGSRTQDECILHFLR

Variants of: B1
Assay: abundance fitness (aPCA) (normalised: wild type 0, dead -1); higher = more abundant; growth selection in yeast, the domain comes from the species named
Conditions: Homo sapiens

Abundance fitness: each site, then its substitutions
L15: V 0.336 | A 0.409 | M 0.436 | K 0.586 | G -0.067 | F -0.211 | E 0.241 | N -0.017 | D 0.232 | W 0.04 | T 0.301 | H 0.551 | C 0.087 | R 0.454 | Y 0.278
D21: H -0.408 | A -0.172 | M -0.747 | K -0.065 | G -0.315 | E -0.158
Y18: R -0.626 | I -0.152 | Q -0.478 | T -0.383 | F -0.417 | L -0.731 | W -0.093 | V -0.419 | P -0.637 | G -0.163 | A -0.375 | M -0.48 | N -0.003 | D -0.283 | H 0.106 | S -0.286 | C -0.501
M17: P -0.501 | T -0.054 | C -0.283 | A -0.224 | D -0.035 | H -0.348 | K 0.077 | N 0.027 | L 0.052 | W -0.118 | R 0.118 | S -0.167 | Q 0.013 | Y -0.084 | G -0.154 | V -0.017
E13: S -0.304 | V -0.469 | F -0.887 | T -0.181 | W -0.697 | A -0.028 | Q -0.34 | G -0.215 | H -0.264 | M -0.222 | N -0.415 | L -0.598 | R -0.172 | D -0.182 | I -0.742
A14: V -1.08 | N -0.57 | G 0.062 | T -0.864 | W -1.39 | E -0.776 | F -1.05 | D -0.806 | L -0.778 | S -0.181 | C -0.804 | P -0.987 | H -1.05 | R -0.741
